In paper doi:10.1101/2022.09.01.506260 one finds percent of the total isolated protein that is dimer and stoichiometry N data, which are given here for two molecules.

Test [1] deals with full length CrkII, dimer (CrkII^FL dimer) (human), P46108. The test can be described thus: SEC. The conditions noted are these: remark: other sources report otherwise.
Test [2] has as its target T1, human 14-3-3ε (human), P62258.
T1 chain: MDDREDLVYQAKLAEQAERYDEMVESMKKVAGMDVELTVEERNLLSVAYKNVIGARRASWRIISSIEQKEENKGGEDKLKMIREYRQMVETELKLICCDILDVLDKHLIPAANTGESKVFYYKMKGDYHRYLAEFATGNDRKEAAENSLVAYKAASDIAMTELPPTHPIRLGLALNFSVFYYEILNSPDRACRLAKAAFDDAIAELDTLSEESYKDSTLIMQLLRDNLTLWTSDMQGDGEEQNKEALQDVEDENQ
The test can be described thus: crystal structure. The conditions noted are these: remark: other sources report otherwise.

B1: full length CrkII, dimer (CrkII^FL dimer), P46108-1 1-304 (natural protein)
chain: MAGNFDSEERSSWYWGRLSRQEAVALLQGQRHGVFLVRDSSTSPGDYVLSVSENSRVSHYIINSSGPRPPVPPSPAQPPPGVSPSRLRIGDQEFDSLPALLEFYKIHYLDTTTLIEPVSRSRQGSGVILRQEEAEYVRALFDFNGNDEEDLPFKKGDILRIRDKPEEQWWNAEDSEGKRGMIPVPYVEKYRPASASVSALIGGNQEGSHPQPLGGPEPGPYAQPSVNTPLPNLQNGPIYARVIQKRVPNAYDKTALALEVGELVKVTKINVSGQWEGECNGKRGHFPFTHVRLLDQQNPDEDFS
For B1, in test [1], the percent of the total isolated protein that is dimer was found to be 10% and the stoichiometry N turned out to be 2.

B2: human 14-3-3ε, P62258-1 1-255 (natural protein)
chain: MDDREDLVYQAKLAEQAERYDEMVESMKKVAGMDVELTVEERNLLSVAYKNVIGARRASWRIISSIEQKEENKGGEDKLKMIREYRQMVETELKLICCDILDVLDKHLIPAANTGESKVFYYKMKGDYHRYLAEFATGNDRKEAAENSLVAYKAASDIAMTELPPTHPIRLGLALNFSVFYYEILNSPDRACRLAKAAFDDAIAELDTLSEESYKDSTLIMQLLRDNLTLWTSDMQGDGEEQNKEALQDVEDENQ
For B2, in test [2], the stoichiometry N was 2.

One may read the stoichiometry N as a count of units in the complex or per binding partner.
